Laboratory results reported in patent publication US20250361296A1 (BIOCYTOGEN PHARMACEUTICALS BEIJING, published 2025).

T1: human SIGLEC16 on CHO-S-hSIGLEC16 cells (human, UniProt A6NMB1 17-434)
T1 chain: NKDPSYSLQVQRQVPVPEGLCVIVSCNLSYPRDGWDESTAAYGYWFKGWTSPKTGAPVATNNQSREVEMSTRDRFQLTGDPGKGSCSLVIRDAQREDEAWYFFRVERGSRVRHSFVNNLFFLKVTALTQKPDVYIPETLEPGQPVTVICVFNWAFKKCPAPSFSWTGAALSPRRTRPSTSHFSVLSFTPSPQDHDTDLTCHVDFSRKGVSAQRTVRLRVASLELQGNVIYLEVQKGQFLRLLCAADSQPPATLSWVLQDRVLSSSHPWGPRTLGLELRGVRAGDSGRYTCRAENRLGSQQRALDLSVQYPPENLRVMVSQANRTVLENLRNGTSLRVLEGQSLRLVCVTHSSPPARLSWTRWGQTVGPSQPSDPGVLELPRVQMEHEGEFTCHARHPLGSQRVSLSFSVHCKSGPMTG

T2: human SIGLEC4 on CHO-S-hSIGLEC4 cells (human, UniProt P20916 20-516)
T2 sequence: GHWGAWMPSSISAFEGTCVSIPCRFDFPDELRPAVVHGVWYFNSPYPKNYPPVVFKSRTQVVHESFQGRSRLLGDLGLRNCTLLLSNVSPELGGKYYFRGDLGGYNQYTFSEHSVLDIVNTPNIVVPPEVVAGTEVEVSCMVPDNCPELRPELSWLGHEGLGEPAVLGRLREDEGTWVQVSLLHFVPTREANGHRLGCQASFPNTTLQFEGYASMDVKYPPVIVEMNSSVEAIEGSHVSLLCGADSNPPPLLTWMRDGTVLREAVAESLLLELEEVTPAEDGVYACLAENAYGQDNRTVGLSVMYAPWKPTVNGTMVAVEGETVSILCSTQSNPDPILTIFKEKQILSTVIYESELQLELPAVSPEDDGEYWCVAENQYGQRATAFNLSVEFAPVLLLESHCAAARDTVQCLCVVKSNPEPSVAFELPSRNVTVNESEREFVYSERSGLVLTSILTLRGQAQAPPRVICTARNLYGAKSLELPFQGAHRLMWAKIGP

T3: human SIGLEC2 on CHO-S-hSIGLEC2 cells (human, UniProt P20273 20-687)
T3 sequence: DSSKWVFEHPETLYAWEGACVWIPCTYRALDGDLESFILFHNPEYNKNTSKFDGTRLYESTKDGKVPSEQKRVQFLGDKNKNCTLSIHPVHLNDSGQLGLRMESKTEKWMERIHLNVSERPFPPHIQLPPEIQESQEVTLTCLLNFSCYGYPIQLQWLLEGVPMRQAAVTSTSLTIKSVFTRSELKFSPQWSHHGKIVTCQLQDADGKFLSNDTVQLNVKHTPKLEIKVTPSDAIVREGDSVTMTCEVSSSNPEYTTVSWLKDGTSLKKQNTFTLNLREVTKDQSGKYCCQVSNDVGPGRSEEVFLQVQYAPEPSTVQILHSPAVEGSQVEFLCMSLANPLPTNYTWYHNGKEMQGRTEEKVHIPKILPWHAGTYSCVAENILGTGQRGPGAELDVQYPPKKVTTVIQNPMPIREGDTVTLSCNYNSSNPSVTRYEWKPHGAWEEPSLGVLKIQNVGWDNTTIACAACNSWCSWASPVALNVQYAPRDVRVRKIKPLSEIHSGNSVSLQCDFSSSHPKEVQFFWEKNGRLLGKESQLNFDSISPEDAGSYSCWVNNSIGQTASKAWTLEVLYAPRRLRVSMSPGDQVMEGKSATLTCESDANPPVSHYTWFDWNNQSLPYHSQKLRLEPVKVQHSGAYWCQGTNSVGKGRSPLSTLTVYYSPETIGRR


What was measured:
Assay in all cases: flow cytometry, CHO-S cells expressing the target; as to Percentage of Positive Cells: test concentration or dose not given here
[1] = biological target: human SIGLEC1 on CHO-S-hSIGLEC1 cells (human, UniProt Q9BZZ2 20-1641)
Sequence of human SIGLEC1 on CHO-S-hSIGLEC1 cells (Q9BZZ2 20-1641): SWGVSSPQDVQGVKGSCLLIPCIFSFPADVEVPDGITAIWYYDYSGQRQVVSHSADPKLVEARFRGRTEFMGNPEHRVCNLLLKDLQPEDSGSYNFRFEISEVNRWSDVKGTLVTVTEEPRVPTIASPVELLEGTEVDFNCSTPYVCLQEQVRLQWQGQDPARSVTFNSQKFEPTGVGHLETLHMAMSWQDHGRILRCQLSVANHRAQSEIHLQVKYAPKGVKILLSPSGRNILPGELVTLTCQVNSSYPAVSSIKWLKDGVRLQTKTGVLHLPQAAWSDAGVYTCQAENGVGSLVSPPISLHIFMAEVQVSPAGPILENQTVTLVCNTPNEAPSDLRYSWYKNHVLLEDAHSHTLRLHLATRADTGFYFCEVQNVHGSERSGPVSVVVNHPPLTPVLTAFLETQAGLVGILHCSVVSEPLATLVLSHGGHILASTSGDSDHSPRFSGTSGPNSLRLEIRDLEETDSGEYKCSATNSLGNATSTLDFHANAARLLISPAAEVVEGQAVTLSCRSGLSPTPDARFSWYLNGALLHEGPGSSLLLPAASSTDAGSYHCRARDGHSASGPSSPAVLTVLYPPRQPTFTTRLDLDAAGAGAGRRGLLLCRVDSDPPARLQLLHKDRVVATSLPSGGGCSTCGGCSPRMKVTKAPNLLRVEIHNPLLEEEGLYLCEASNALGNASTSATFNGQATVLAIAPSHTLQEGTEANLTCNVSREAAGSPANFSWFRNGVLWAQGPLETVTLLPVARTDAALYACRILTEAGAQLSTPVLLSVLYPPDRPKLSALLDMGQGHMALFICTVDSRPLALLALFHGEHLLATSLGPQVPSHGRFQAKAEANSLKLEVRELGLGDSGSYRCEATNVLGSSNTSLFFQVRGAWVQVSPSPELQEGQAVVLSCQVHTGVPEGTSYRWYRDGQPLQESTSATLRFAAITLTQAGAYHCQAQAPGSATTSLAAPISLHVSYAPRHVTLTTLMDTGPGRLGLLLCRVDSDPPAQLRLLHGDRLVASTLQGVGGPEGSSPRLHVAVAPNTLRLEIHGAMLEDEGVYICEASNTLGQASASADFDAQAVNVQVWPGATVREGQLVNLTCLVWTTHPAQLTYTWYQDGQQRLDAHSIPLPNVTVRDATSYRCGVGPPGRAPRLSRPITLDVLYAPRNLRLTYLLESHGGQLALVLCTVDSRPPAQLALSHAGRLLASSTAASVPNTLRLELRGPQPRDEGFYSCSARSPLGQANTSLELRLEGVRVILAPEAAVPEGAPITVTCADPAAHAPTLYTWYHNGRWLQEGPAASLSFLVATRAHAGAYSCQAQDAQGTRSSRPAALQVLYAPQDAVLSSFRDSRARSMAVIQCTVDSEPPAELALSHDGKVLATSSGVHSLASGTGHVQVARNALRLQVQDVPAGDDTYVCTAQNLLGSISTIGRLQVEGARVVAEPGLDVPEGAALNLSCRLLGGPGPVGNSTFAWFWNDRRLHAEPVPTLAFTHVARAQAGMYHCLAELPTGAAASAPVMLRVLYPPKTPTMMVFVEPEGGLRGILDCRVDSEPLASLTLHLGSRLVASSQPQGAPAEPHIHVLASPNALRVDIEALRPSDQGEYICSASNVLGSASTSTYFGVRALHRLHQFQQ
Protocol: (§1) CHO-S-hSIGLEC15 cells, CHO-S-mSIGLEC15 cells, CHO-S-fasSIGLEC15 cells or CHO-S-dSIGLEC15 cells were transferred to a 96-well plate at a density of 5×10⁴ cells/well respectively. Serially diluted sample anti-SIGLEC15 antibodies were added to the 96-well plate, and incubated at 4° C. for 30 min. Then, the cells were incubated with the secondary antibody anti-hIgG-Fc-Alex Flour 647 (RL1-H) (Jackson ImmunoResearch Laboratories, Inc., 109-606-170) at 4° C. in the dark for 15 minutes before flow cytometry analysis.
(§2) Another similar experiment was performed to determine whether the anti-SIGLEC15 antibodies can bind with other SIGLEC family proteins. CHO-S-hSIGLEC1 cells (expressing hSIGLEC1, SEQ ID NO: 49)), CHO-S-hSIGLEC2 cells (expressing hSIGLEC2, SEQ ID NO: 50), CHO-S-hSIGLEC4 cells (expressing hSIGLEC4, SEQ ID NO: 51), CHO-S-hSIGLEC5 cells (expressing hSIGLEC5, SEQ ID NO: 52), CHO-S-hSIGLEC6 cells (expressing hSIGLEC6, SEQ ID NO: 53), CHO-S-hSIGLEC7 cells (expressing hSIGLEC7, SEQ ID NO: 54), CHO-S-hSIGLEC8 cells (expressing hSIGLEC8, SEQ ID NO: 55), CHO-S-hSIGLEC9 cells (expressing hSIGLEC9, SEQ ID NO: 56), CHO-S-hSIGLEC10 cells (expressing hSIGLEC10, SEQ ID NO: 57), CHO-S-hSIGLEC11 cells (expressing hSIGLEC11, SEQ ID NO: 58), CHO-S-hSIGLEC12 cells (expressing hSIGLEC12, SEQ ID NO: 59), CHO-S-hSIGLEC14 cells (expressing hSIGLEC14, SEQ ID NO: 60) or CHO-S-hSIGLEC16 cells (expressing hSIGLEC16, SEQ ID NO: 61) were used.

[2] = biological target: T1, human SIGLEC16 on CHO-S-hSIGLEC16 cells
Protocol: as §1, §2

[3] = biological target: human SIGLEC8 on CHO-S-hSIGLEC8 cells (human, UniProt Q9NYZ4 17-363)
Sequence of human SIGLEC8 on CHO-S-hSIGLEC8 cells (Q9NYZ4 17-363): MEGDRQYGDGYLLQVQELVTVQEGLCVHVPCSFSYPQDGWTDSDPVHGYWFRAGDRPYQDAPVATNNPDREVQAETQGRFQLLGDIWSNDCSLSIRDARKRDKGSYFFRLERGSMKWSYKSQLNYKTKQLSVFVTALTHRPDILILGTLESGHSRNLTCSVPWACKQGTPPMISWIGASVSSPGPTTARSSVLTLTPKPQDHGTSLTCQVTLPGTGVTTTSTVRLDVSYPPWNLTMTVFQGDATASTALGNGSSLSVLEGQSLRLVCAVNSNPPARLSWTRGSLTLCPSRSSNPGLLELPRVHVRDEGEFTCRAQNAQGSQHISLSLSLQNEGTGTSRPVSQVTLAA
Protocol: as §1, §2

[4] = biological target: T2, human SIGLEC4 on CHO-S-hSIGLEC4 cells
Protocol: as §1, §2

[5] = biological target: T3, human SIGLEC2 on CHO-S-hSIGLEC2 cells
Protocol: as §1, §2

Binder	Percentage of Positive Cells [1]	binding result [1]	Percentage of Positive Cells [2]	binding result [2]	Percentage of Positive Cells [3]	binding result [3]	Percentage of Positive Cells [4]	binding result [4]	Percentage of Positive Cells [5]	binding result [5]
anti-SIGLEC15 antibody 23F4 (antibody, human IgG1, V domains shown) VH: QVQLQQWGAGLLKPSETLSLTCAVYGGSFSGYFWSWIRQPPGKGLEWIGEINHSGSTNYNPSLKSRVTLSVDTSKNQFSLKLSSVTAADTAVYYCAREGDSSSWGNWFDPWGQGTLVTVSS VL: EIVLTQSPGTLSLSPGERATLSCRASQSVSSSYLAWYQQKPGQAPRFLIYGASSRATGIPDRFSGSGSGTDFTLTISRLEPEDFAVYYCQQFGNSPLTFGGGTKVEIK	1.1%	no binding	1.3%	no binding	0.6%	no binding	0.8%	no binding	1.8%	no binding
anti-SIGLEC15 antibody 10A7 (antibody, human IgG1, V domains shown) VH: EVQLVQSGGGLVQPGGSLRLSCAASGFTFSNYEMNWVRQAPGKGLEWISYISNSGSTIYYADSVKGRFTISRDDAKNSLYLQMNSLRAEDTAVYYCAREDYDSSGYYWFDPWGQGTPVTVSS VL: DIQLTQSPSSVSASVGDRVTITCRASQGISSWLAWYQQKPGKAPKLLIYAASSLQSGVPSRFSGSGSGTDFTLTINSLQPEDFATYYCQQTNSFPLTFGGGTKVEIK	0%	no binding	0.2%	no binding	0.1%	no binding	1.1%	no binding	0%	no binding
anti-SIGLEC15 antibody 10C9 (antibody, human IgG1, V domains shown) VH: QVQLVQSGAEVKKPGATVKVSCKASGYTFTNYGFSWVRQAPGQGLEWMGWINTYNDNTNYAQKFQGRVTMTTDTSTSTAYMELRSLRSDDTAVYYCARDGLWFGELPHYFDYWGQGTLVTVSS VL: DIQLTQSPLSSPVTLGQPASISCRSSQSLVNSDGETFLSWLQQRPGQPPRLLIYKISNRFSGVPDRFSGSGAGTDFTLKISRVEAEDVGVYYCMQATQFPHTFGQGTKLEIK	0.1%	no binding	0.2%	no binding	0.3%	no binding	1.2%	no binding	0.3%	no binding
